# Laboratory results taken from US20140170239A1 (VRIJE UNIVERSITEIT BRUSSEL, published 2014).
# Where no end group is shown, it is not given here.
# B1: FLAG-tagged Cyclin-I2 (other, human, UniProt Q6ZMN8 1-369, looked up)
# chain: MASGAQLPPQPSSSEVSAVQSPGGRPGAGLEETALGVPLPPSPGEAPLPRSNRSRCPGTRQPGAASLHAASAAVPVRPRRGTAPAGKTADAVPAAAPEQAPRPAPQSRKPRNLEGDLDERRLLCHLQLAQDREARLWRGGKPQDEICDAFEEVVLWLLRLQNTFYFSQSTFNLALTIFGRLLISVKVKEKYLHCATITSLRLAAKVNEEEEFIPQVKDFTKHYGSDYSPNELLRMELAILDRLHWDLYIGTPLDFLTIFHALVVLSWPHVLELLPQRNPSLHVASLTRQLQHCMAGHQLLQFKGSTLALVIITLELERLMPGWCAPISDLLKKAQVGDMQYSCCKELVMQQLRSLQSSSCTDNFVSPAN
# notes: also called CCNI2_HUMAN; CCNI2
# B2: CASP8_HUMAN peptide ILTILTE (peptide)
# peptide: ILTILTE
# notes: spot-synthesized on membrane; also called caspase-8 (CASP8) segment; position Nr 11
# B3: P73_HUMAN peptide ILIIITL (peptide)
# peptide: ILIIITL
# notes: spot-synthesized on membrane; also called p73β; position Nr 35
# B4: P63_HUMAN peptide ILIIVTL (peptide)
# peptide: ILIIVTL
# notes: spot-synthesized on membrane; also called p63β; position Nr 16
# B5: CC132_HUMAN peptide ILTNTTL (peptide)
# peptide: ILTNTTL
# notes: spot-synthesized on membrane; also called position Nr 21
# B6: SPEF2_HUMAN peptide ILSIDTL (peptide)
# peptide: ILSIDTL
# notes: spot-synthesized on membrane; also called position Nr 54
# B7: TAGAP_HUMAN peptide ILTILCL (peptide)
# peptide: ILTILCL
# notes: spot-synthesized on membrane; also called position Nr 5
# B8: DHX33_HUMAN peptide ILTIVSL (peptide)
# peptide: ILTIVSL
# notes: spot-synthesized on membrane; also called position Nr 4
# B9: METH_HUMAN peptide ILTIGTG (peptide)
# peptide: ILTIGTG
# notes: spot-synthesized on membrane; also called methionine synthase (METH) segment; position Nr 38
# B10: CCNI2_HUMAN peptide ALVIITL (peptide)
# peptide: ALVIITL
# notes: spot-synthesized on membrane; also called position Nr 23
# B11: CPNE2_HUMAN peptide ILLIITD (peptide)
# peptide: ILLIITD
# notes: spot-synthesized on membrane; also called Copine-2 (CPNE2) segment; position Nr 42
# B12: ANXA6_HUMAN peptide ILDIITS (peptide)
# peptide: ILDIITS
# notes: spot-synthesized on membrane; also called annexin-6 peptide fragment; position Nr 29
# B13: CGRF1_HUMAN peptide ITTGITL (peptide)
# peptide: ITTGITL
# notes: spot-synthesized on membrane; also called CGRF1 segment; position Nr 30
# B14: CD041_HUMAN peptide ITTVITL (peptide)
# peptide: ITTVITL
# notes: spot-synthesized on membrane; also called position Nr 8
# B15: VATA_HUMAN peptide IYTGITL (peptide)
# peptide: IYTGITL
# notes: spot-synthesized on membrane; also called position Nr 14
# B16: CT132_HUMAN peptide IKSIITL (peptide)
# peptide: IKSIITL
# notes: spot-synthesized on membrane; also called position Nr 45
# B17: DHX29_HUMAN peptide ILQIITE (peptide)
# peptide: ILQIITE
# notes: spot-synthesized on membrane; also called position Nr 44
# B18: PK3C3_HUMAN peptide ILQIISL (peptide)
# peptide: ILQIISL
# notes: spot-synthesized on membrane; also called position Nr 18
# B19: PDS5A_HUMAN peptide IVTIITA (peptide)
# peptide: IVTIITA
# notes: spot-synthesized on membrane; also called position Nr 3
# B20: P53_HUMAN peptide ILTIITL (immobilised spot) (peptide)
# peptide: ILTIITL
# notes: spot-synthesized on membrane; also called p53β; position Nr 1
# B21: CXL11_HUMAN peptide IEVIITL (peptide)
# peptide: IEVIITL
# notes: spot-synthesized on membrane; also called position Nr 32
# B22: SCC4_HUMAN peptide IQTISTL (peptide)
# peptide: IQTISTL
# notes: spot-synthesized on membrane; also called position Nr 55
# B23: AL2SA_HUMAN peptide GLTIPTL (peptide)
# peptide: GLTIPTL
# notes: spot-synthesized on membrane; also called position Nr 52
# B24: BCL6B_HUMAN peptide ILTDVTL (peptide)
# peptide: ILTDVTL
# notes: spot-synthesized on membrane; also called position Nr 40
# B25: KV122_HUMAN peptide ILTISSL (peptide)
# peptide: ILTISSL
# notes: spot-synthesized on membrane; also called position Nr 22
# B26: Control peptide RRPILTIITLEDGS (peptide)
# peptide: RRPILTIITLEDGS
# notes: spot-synthesized on membrane; longer peptide that holds ILTIITL; also called position Nr 2
# B27: KLH32_HUMAN peptide ILCDITL (peptide)
# peptide: ILCDITL
# notes: spot-synthesized on membrane; also called position Nr 43
# B28: GCDH_HUMAN peptide MLTEITL (peptide)
# peptide: MLTEITL
# notes: spot-synthesized on membrane; also called position Nr 19
# B29: HEAT1_HUMAN peptide ILTKISL (peptide)
# peptide: ILTKISL
# notes: spot-synthesized on membrane; also called position Nr 13
# B30: PRA10_HUMAN peptide FLTIFTL (peptide)
# peptide: FLTIFTL
# notes: spot-synthesized on membrane; also called position Nr 25
# B31: PTPC1_HUMAN peptide IKTIINL (peptide)
# peptide: IKTIINL
# notes: spot-synthesized on membrane; also called position Nr 33
# B32: RTTN_HUMAN peptide ILTICTK (peptide)
# peptide: ILTICTK
# notes: spot-synthesized on membrane; also called position Nr 47
# B33: CBPC3_HUMAN peptide ILTITTP (peptide)
# peptide: ILTITTP
# notes: spot-synthesized on membrane; also called position Nr 39
# B34: NOL11_HUMAN peptide ILTKYTL (peptide)
# peptide: ILTKYTL
# notes: spot-synthesized on membrane; also called position Nr 37
# B35: CND2_HUMAN peptide ILTKSTL (peptide)
# peptide: ILTKSTL
# notes: spot-synthesized on membrane; also called position Nr 51
# B36: MYST3_HUMAN peptide ILTKPTL (peptide)
# peptide: ILTKPTL
# notes: spot-synthesized on membrane; also called position Nr 28
# B37: DYH3_HUMAN peptide ILTFKTL (peptide)
# peptide: ILTFKTL
# notes: spot-synthesized on membrane; also called position Nr 12
# B38: RFC5_HUMAN peptide ILTEIHL (peptide)
# peptide: ILTEIHL
# notes: spot-synthesized on membrane; also called position Nr 34
# B39: CM031_HUMAN peptide KLTIITS (peptide)
# peptide: KLTIITS
# notes: spot-synthesized on membrane; also called position Nr 53
# B40: ZN830_HUMAN peptide ILTIKEL (peptide)
# peptide: ILTIKEL
# notes: spot-synthesized on membrane; also called position Nr 31
# B41: MP2K4_HUMAN peptide ILGKITL (peptide)
# peptide: ILGKITL
# notes: spot-synthesized on membrane; also called position Nr 17
# B42: CYTIP_HUMAN peptide LLTIETL (peptide)
# peptide: LLTIETL
# notes: spot-synthesized on membrane; also called position Nr 24
# B43: TAF4B_HUMAN peptide ILKQITL (peptide)
# peptide: ILKQITL
# notes: spot-synthesized on membrane; also called position Nr 49
# B44: BPA1_HUMAN peptide ILKNITL (peptide)
# peptide: ILKNITL
# notes: spot-synthesized on membrane; also called position Nr 46
# B45: CD2A1_HUMAN peptide ILRQITL (peptide)
# peptide: ILRQITL
# notes: spot-synthesized on membrane; also called position Nr 56
# B46: SMG1_HUMAN peptide ILTLIEL (peptide)
# peptide: ILTLIEL
# notes: spot-synthesized on membrane; also called position Nr 41
# B47: TRI18_HUMAN peptide CLTIITG (peptide)
# peptide: CLTIITG
# notes: spot-synthesized on membrane; also called position Nr 26
# B48: MX2_HUMAN peptide DLTIIDL (peptide)
# peptide: DLTIIDL
# notes: spot-synthesized on membrane; also called position Nr 50
# B49: KV117_HUMAN peptide TLTISTL (peptide)
# peptide: TLTISTL
# notes: spot-synthesized on membrane; also called position Nr 15
# B50: BPTF_HUMAN peptide VLTISTL (peptide)
# peptide: VLTISTL
# notes: spot-synthesized on membrane; also called position Nr 10
# B51: LRC40_HUMAN peptide IHAIITL (peptide)
# peptide: IHAIITL
# notes: spot-synthesized on membrane; also called position Nr 27
# B52: PGTA_HUMAN peptide LLTIILL (peptide)
# peptide: LLTIILL
# notes: spot-synthesized on membrane; also called position Nr 9
# B53: EPMIP_HUMAN peptide LLTIINL (peptide)
# peptide: LLTIINL
# notes: spot-synthesized on membrane; also called position Nr 6
# B54: BN3D2_HUMAN peptide ALTFITL (peptide)
# peptide: ALTFITL
# notes: spot-synthesized on membrane; also called position Nr 7
# B55: LONF2_HUMAN peptide ILVIITR (peptide)
# peptide: ILVIITR
# notes: spot-synthesized on membrane; also called position Nr 48
# B56: RTEL1_HUMAN peptide ILTSGTL (peptide)
# peptide: ILTSGTL
# notes: spot-synthesized on membrane; also called position Nr 36
# B57: DIP2B_HUMAN peptide ILTSQTL (peptide)
# peptide: ILTSQTL
# notes: spot-synthesized on membrane; also called position Nr 20
# Target: T1, HA-tagged wild-type p53 (human, UniProt P04637 1-393)
# T1 construct: range 1-393; expressed in cells, tested in cell lysate; also called WT p53; p53-HA
# Test: co-IP, HeLa cells, anti-FLAG IP, anti-HA blot
# Method: HeLa (Human epithelial carcinoma) cells were cultured in DMEM supplemented with 10% fetal calf serum (Gibco), L-glutamine (4 mM), penicillin (100 U/ml), and streptomycin (100 U/ml). Proliferating cell cultures were maintained in a 5% CO2-humidified incubator at 37° C. […] The complex of DNA and FuGENE HD was prepared in 500 μL DMEM and incubated for 20 minutes before adding to cells. For stable transfection, DMEM medium containing 10% fetal calf serum and 500 μg/mL G418 was used to select colonies that carried the transfected vector for six weeks, and expression of the vector was validated by Western blot. Stably transfected cells were maintained in medium containing 250 μg/mL G418 for further analysis. Transfection of siRNA for p53 (Santa Cruz) was performed using X-tremeGENE siRNA transfection reagent (Roche) according to the manufacturer's instructions.
# Hela cells co-transfected with mutant HA-p53 and FLAG-tagged proteins were lysed with RIPA buffer (Thermo) with DNase and protease inhibitors (Roche) for 30 minutes on ice. […] After incubation at 21° C. for 1 hour, the agarose beads were rinsed with 200 μL TBS three times, and subsequently eluted by heating at 95° C. in presence of SDS (without DTT). The co-immunoprecipitated p53 was detected with mouse anti-HA antibody or anti-p53.
row,Binder,binding result
1,B1,no binding

# Target: T2, biotinylated p53β peptide (human, also: biotinylated, site not given here)
# T2 construct: also called biotinylated p53-aggregating peptide
# T2 peptide: ILTIITL
# Test: peptide-binding assay: peptide spots on membrane, biotinylated p53β peptide, streptavidin-HRP;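 for Binding intensity (normalized): Membrane-bound synthesized peptide spots exposed to the biotinylated p53 aggregation-prone peptide, bound material revealed via streptavidin-HRP and chemiluminescence, spot signal reflecting binding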
row,Binder,Coaggregation (peptide binding)
1,B2,11.4%
2,B3,99%
3,B4,92%
4,B5,77%
5,B6,79.6%
6,B7,4.8%
7,B8,10.2%
8,B9,49.2%
9,B10,43.4%
10,B11,111%
11,B12,78.9%

# Target: T2, biotinylated p53β peptide
# Test: as above
# Remark: another data set of the same source
# Method: Subsequently, the ability of the selected peptides to interact with p53β using an in vitro peptide-binding assay was empirically determined. Therefore, the 56 selected peptides were spot-synthesized on a cellulose membrane, which was subsequently incubated with biotinylated p53β peptide (FIG. 17, panel b). After washing, the membrane was treated with streptavidine-HRP to detect p53β binding (FIG. 17, panel c).
# Peptides of selected sequences were spot synthesized on PVDF membrane (PepSpot, JPT). The membranes were blocked by 1% BSA in phosphate-buffered saline for 1 hour at room temperature, and then incubated with biotinylated peptide containing the p53-aggregating sequence for 1 hour. After rinsing with 0.1% TWEEN® 20 in 25 mM MES buffer pH 7.0, membranes were incubated in HRP-labeled Streptavidin (Thermo) and visualized with electrochemical luminescence (ECL) system.
row,Binder,Binding intensity (normalized)
1,B2,11.4 normalized
2,B13,36.7 normalized
3,B14,5.27 normalized
4,B15,32.1 normalized
5,B16,4.39 normalized
6,B17,15.6 normalized
7,B18,26.3 normalized
8,B19,17.2 normalized
9,B3,99 normalized
10,B20,100 normalized
11,B4,92 normalized
12,B5,77 normalized
13,B21,8.54 normalized
14,B6,79.6 normalized
15,B7,4.81 normalized
16,B22,7.06 normalized
17,B23,10.9 normalized
18,B24,5.88 normalized
19,B25,23.8 normalized

row,Binder,Binding intensity (normalized)
1,B8,10.2 normalized
2,B26,30.9 normalized
3,B27,7.89 normalized
4,B28,3.03 normalized
5,B29,8.65 normalized
6,B30,26.4 normalized
7,B9,49.2 normalized
8,B10,43.4 normalized
9,B31,9.72 normalized
10,B11,111 normalized
11,B32,6.48 normalized
12,B33,19.6 normalized
13,B34,33.3 normalized
14,B35,17.9 normalized
15,B36,16.1 normalized
16,B37,6.2 normalized
17,B38,12.9 normalized
18,B39,17.9 normalized
19,B40,14.1 normalized

row,Binder,Binding intensity (normalized)
1,B41,16.9 normalized
2,B42,26.6 normalized
3,B43,19.8 normalized
4,B44,12.1 normalized
5,B45,14.7 normalized
6,B46,9.77 normalized
7,B47,3.67 normalized
8,B12,78.9 normalized
9,B48,40.2 normalized
10,B49,10.2 normalized
11,B50,6.72 normalized
12,B51,8.22 normalized
13,B52,3.95 normalized
14,B53,1.55 normalized
15,B54,6.47 normalized
16,B55,6.81 normalized
17,B56,17.3 normalized
18,B57,2.39 normalized
